Measurements reported in patent US8093212B2, “Methods of treating nerve-related vision disorders by an insulinomimetic agent” (The Penn State Research Foundation, priority 2002, dated 2012).
Entries after “also recorded” stand apart in the source; their conditions may differ.

Assays:
[1] = system: Akt; experiment: Intraportal insulin injection: retinal Akt (serine 473) phosphorylation Western blot; format: in vivo, Sprague-Dawley rats; conditions: retina, 45 minutes post-injection, 500 μg insulin bolus via portal vein
Description: (§1) Intraportal insulin injection was performed to determine if a single bolus insulin injection, and therefore an acute elevation in circulating insulin, could activate retinal insulin receptors (IR) in vivo as it does in other tissues. Intraportal insulin injection was conducted as follows. Male Sprague-Dawley rats (Charles River, Mass.) weighing 200 350 g were fasted 18 hours prior to being anesthetized with a 10:1 ketamine:xylazine cocktail (53.5 mg/kg ketamine and 5.33 mg/kg xylazine) administered by intramuscular injection. The fasted rats were administered a 500 μg bolus of insulin, nothing (sham), or vehicle (0.9% saline) via the portal vein. […]
(§2) Tissue lysates were immunoprecipitated and immunoblotted as described by Barber et al. (2001, J. Biol. Chem. 276: 32814 32831). Tissues were homogenized in an immunoprecipitation (IP) lysis buffer (consisting of 50 mM HEPES, pH 7.3, 137 mM NaCl, 1 mM MgCl2, 2 mM NaVO4, 10 mM Na2H2P2O7, 10 mM NaF, 2 mM EDTA, 2 mM PMSF, 10 mM benzamidine, 10% glycerol, 1% NP-40, and 1 protease inhibitor tablet (Boehringer-Mannheim) per 10 mL of buffer. Homogenates were rocked 15 minutes at 4° C. and then centrifuged at 14,000 rpm at 4° C. Prior to immunoprecipitation and immunoblotting, the resulting supernatant was subjected to protein assay (Bio-Rad) and quantification. […]

[2] = molecular target: T1, insulin-like growth factor I receptor (IGF-IRβ) (Rattus norvegicus, UniProt P24062); experiment: Retinal explants: IGF-IRβ tyrosine phosphorylation; format: cell-based
T1 construct: from tissue; host or cells: rat retinal explants
T1 sequence (P24062 742-1370 limits assumed): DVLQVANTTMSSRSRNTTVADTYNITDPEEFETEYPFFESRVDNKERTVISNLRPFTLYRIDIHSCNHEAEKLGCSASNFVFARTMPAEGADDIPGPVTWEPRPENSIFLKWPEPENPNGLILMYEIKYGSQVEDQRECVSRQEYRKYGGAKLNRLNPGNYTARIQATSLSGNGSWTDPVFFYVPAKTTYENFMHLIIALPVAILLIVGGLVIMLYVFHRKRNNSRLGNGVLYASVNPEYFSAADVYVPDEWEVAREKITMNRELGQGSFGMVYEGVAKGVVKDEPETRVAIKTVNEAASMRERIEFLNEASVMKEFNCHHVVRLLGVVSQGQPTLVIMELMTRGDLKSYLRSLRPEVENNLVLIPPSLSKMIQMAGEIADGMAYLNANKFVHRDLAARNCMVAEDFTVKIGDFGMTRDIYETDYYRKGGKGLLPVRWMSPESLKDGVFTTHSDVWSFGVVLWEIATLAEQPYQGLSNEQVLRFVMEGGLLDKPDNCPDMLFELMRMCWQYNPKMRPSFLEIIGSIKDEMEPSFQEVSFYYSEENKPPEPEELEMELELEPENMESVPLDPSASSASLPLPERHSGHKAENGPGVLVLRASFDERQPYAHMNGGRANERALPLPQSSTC
T1 sequence (P24062 31-737 limits assumed): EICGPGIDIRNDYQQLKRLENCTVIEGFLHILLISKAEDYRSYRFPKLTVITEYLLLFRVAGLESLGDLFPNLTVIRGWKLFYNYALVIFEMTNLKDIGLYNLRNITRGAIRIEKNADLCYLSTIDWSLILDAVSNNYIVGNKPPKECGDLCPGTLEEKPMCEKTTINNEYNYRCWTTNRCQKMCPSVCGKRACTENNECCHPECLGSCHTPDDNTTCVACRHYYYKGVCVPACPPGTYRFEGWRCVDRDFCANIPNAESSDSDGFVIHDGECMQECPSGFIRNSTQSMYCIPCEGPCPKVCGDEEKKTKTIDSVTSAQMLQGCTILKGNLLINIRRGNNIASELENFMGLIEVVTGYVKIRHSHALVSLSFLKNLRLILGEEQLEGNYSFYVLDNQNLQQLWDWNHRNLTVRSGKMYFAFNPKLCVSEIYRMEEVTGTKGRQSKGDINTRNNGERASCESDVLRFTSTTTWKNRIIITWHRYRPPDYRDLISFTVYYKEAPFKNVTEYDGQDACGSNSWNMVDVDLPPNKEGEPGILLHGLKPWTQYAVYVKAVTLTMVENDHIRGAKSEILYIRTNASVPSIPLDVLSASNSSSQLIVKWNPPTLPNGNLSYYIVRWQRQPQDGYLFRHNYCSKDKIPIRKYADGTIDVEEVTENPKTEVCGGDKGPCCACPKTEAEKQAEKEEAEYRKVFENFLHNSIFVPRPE
Description: (§3) A tissue explant culture system was used to characterize insulin-signaling transduction in retina without the hindrance of the blood retinal barrier present in whole animal models. Such a tissue explant culture system was developed as follows. Rats as described in Examples 1 and 2 were anesthetized using sodium pentobarbital ([…]), and then decapitated upon loss of motor reflexes. Rat retinas were removed by cutting across the cornea, removing the lens, and squeezing the eyeball to rapidly extract the retina. Retinas were pre-incubated in MEM (Sigma) supplemented with 5 mM pyruvate and 10 mM HEPES for 15 minutes at 37° C., 5% CO2, and with gentle shaking. Ten nM insulin or vehicle was added following pre-incubation. At 2, 5, 15, and 30 minutes after insulin addition, retinas were snap-frozen in liquid nitrogen for future use.
Retinas were treated with either 1.3 nM IGF-1 or 0, 1, 10, 100, and 1000 nM insulin, and then retinal lysates were immunoprecipitated with an insulin-like growth factor I receptor (IGF-IRβ)-specific antibody, followed by PY Western blotting (shown in FIG. 6). The IGF1-R was immunoprecipitated and PY Western blotting performed as described above.

[3] = 0.0325 U/100 g insulin, subconjunctival space
From the text: This route of administration bypasses the BRB for a more direct route of insulin action on retina. […] The retina was processed for IRβ PY content as described in Example 1.

[4] = molecular target: T2, insulin receptor beta-subunit (IRβ) (Rattus norvegicus, UniProt P15127); experiment: Intraportal insulin injection: retina IRβ tyrosine phosphorylation (PY Western blot); format: in vivo, Sprague-Dawley rats; design: hindquarter skeletal muscle and retina were snap-frozen under liquid nitrogen; from tissue; host or cells: rat retina; conditions: 500 μg insulin bolus via portal vein, fasted rats
T2 sequence (P15127 764-1383 limits assumed): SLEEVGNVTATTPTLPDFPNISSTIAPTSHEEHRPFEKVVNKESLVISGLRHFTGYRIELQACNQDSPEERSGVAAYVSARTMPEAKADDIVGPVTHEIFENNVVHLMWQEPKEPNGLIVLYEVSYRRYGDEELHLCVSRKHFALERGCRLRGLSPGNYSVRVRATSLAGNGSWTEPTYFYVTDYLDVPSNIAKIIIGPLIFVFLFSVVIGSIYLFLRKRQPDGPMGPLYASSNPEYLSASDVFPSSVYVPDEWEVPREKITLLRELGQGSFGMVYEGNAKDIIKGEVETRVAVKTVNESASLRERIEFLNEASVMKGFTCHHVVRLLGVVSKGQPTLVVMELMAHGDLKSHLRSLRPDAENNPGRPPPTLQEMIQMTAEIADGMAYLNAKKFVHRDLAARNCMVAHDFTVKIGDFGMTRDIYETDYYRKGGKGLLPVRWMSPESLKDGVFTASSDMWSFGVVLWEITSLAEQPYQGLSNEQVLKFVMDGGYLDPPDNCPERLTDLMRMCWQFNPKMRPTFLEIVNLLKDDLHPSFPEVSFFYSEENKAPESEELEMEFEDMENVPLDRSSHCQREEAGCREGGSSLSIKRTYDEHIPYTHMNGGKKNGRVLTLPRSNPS
T2 sequence (P15127 27-759 limits assumed): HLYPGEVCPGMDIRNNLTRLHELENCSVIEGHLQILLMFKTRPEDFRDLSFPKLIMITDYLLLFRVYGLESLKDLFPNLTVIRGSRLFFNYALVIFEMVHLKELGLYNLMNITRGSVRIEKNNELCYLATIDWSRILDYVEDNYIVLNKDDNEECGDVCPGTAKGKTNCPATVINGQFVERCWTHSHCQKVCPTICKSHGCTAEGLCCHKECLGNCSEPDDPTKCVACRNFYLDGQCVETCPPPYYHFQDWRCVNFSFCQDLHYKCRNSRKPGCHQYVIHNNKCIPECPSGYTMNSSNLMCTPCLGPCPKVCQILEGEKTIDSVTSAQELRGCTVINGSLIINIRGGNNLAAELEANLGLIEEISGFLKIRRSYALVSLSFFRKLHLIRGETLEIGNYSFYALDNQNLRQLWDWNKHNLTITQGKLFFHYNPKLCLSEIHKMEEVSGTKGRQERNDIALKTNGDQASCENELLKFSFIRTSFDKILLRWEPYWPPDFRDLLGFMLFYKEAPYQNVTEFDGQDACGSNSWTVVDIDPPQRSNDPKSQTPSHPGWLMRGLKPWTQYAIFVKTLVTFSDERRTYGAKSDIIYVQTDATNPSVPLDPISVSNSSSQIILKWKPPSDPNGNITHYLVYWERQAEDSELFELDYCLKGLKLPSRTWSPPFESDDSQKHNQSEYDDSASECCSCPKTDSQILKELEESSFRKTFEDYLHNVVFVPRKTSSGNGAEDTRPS
Description: as §1, §2

[5] = molecular target: T2, insulin receptor beta-subunit (IRβ); experiment: Retinal tissue explant culture: IRβ tyrosine phosphorylation; format: cell-based; design: from tissue; host or cells: rat retinal explants; conditions: 10 nM insulin
Description: as §3
To examine the time course of insulin signaling events in the tissue, insulin-treated retinas were compared to retinas that received vehicle (0.9% saline) and to untreated retinas. Tissues were analyzed by immunoprecipitation and Western blotting as described in Example 1.

[6] = system: IR and Akt kinase pathway; experiment: Subconjunctival insulin administration: retinal IR and Akt kinase pathway activation; format: in vivo, Sprague-Dawley rats
[7] = molecular target: T2, insulin receptor beta-subunit (IRβ); experiment: Intraportal insulin injection: muscle IRβ tyrosine phosphorylation (PY Western blot); format: in vivo, Sprague-Dawley rats; design: hindquarter skeletal muscle and retina were snap-frozen under liquid nitrogen; from tissue; host or cells: rat retina; conditions: 500 μg insulin bolus via portal vein
Description: Intraportal insulin injection was performed to determine if a single bolus insulin injection, and therefore an acute elevation in circulating insulin, could activate retinal insulin receptors (IR) in vivo as it does in other tissues. Intraportal insulin injection was conducted as follows. Male Sprague-Dawley rats (Charles River, Mass.) weighing 200 350 g were fasted 18 hours prior to being anesthetized with a 10:1 ketamine:xylazine cocktail (53.5 mg/kg ketamine and 5.33 mg/kg xylazine) administered by intramuscular injection. The fasted rats were administered a 500 μg bolus of insulin, nothing (sham), or vehicle (0.9% saline) via the portal vein. At 15, 30, 45 and 60 minutes post injection (shown in FIG. 2A), hindquarter skeletal muscle and retina were snap-frozen under liquid nitrogen, and then stored at −80° C. pending analysis by immunoprecipitation and immunoblotting. There was no difference in insulin receptor beta-subunit (IRβ) phosphorylation between vehicle (V) and insulin (I) injection.
Tissue lysates were immunoprecipitated and immunoblotted as described by Barber et al. (2001, J. Biol. Chem. 276: 32814 32831). Tissues were homogenized in an immunoprecipitation (IP) lysis buffer (consisting of 50 mM HEPES, pH 7.3, 137 mM NaCl, 1 mM MgCl2, 2 mM NaVO4, 10 mM Na2H2P2O7, 10 mM NaF, 2 mM EDTA, 2 mM PMSF, 10 mM benzamidine, 10% glycerol, 1% NP-40, and 1 protease inhibitor tablet (Boehringer-Mannheim) per 10 mL of buffer. Homogenates were rocked 15 minutes at 4° C. and then centrifuged at 14,000 rpm at 4° C. Prior to immunoprecipitation and immunoblotting, the resulting supernatant was subjected to protein assay (Bio-Rad) and quantification.
Immunoprecipitations were performed as follows. […] Fifty μg of protein per sample were analyzed by SDS-polyacrylamide gel electrophoresis (SDS-PAGE). […] Positive signals were detected with […] (ECL) kits (Cell Signaling) and electrochemifluoresence (ECF) kits (Amersham) each performed according to each manufacturer's protocol. […]

Substance: insulin
- increase in phosphoserine 473 content of Akt over vehicle injected controls [1]: 48%
- IGF-IRβ phosphorylation ([2]; 10 nM insulin): remained unchanged
- IGF-IRβ phosphorylation ([2]; 100 nM insulin, comparator 1.3 nM IGF-1): increased
- effect on blood glucose values [3]: without lowering blood glucose values
- time of maximal retinal IRβ tyrosine phosphorylation [4]: 45 min
- time until retinal IRβ tyrosine phosphorylation increased [4]: 30 min
- retinal IRβ phosphotyrosine immunoreactivity, fold greater than baseline ([5]; 30 minute time point): 3 fold
- retinal IRβ phosphotyrosine immunoreactivity, fold greater ([5]; within 2 minutes of stimulation, normalized to total IRβ): ~4 fold
- retinal explant IRβ phosphorylation (qualitative) ([5]; 2, 5, 15 and 30 minutes, normalized to total IRβ): significant increase
- activation of the IR and Akt kinase pathway ([6]; 0.0325 U/100 g insulin, subconjunctival space, normal rats): activated
- retinal IRβ PY content, insulin eye compared to contralateral vehicle eye ([6]; subconjunctival insulin, FIG. 8): phosphorylated
- time of peak muscle IRβ phosphotyrosine increase ([7]; fasted rats): 30 min
- increase in phosphotyrosine content in muscle IRβ (PY/IRβ ratio) ([7]; fasted rats, 15 minutes post-injection, zero time point set to 1): ~30 fold
- muscle IRβ phosphorylation response (qualitative) ([7]; 15, 30, 45 and 60 minutes post injection): robust response; also recorded: significant increase
